Measurements taken from the DeepSol protein solubility set.

Experiment: soluble on expression in E. coli; label from the status in PepcDB or PDB records

Row | Sequence | soluble on expression in E. coli
1 | AHHHHHHGSSVEVPLNPITRSEIHQLESILLFATLFRPEVIELIKDPAERLTWVDSLAVAAGAIAREKAGMTVSEIARELGRTEQTIRKHLKGESKAGQLVRETYELIKQGKLDELIKTIEMIEKGGLREVVAKEEYEKLLQEYEKLKQEYEAIKEKVEAAELESLEKAKEEIENLKKKLQKLEEEKKELEKELKEQKVKLIEYEAKAKRAEELENKVKELEQLAKESEELKKKLEEVQAEAEKAKELENRIKELEEEITKLKDGIKKAKEILESLL | not soluble
2 | AHHHHHHGSVDMSKVKLRIENIVASVDLFAQLDLEKVLDLCPNSKYNPEEFPGIICHLDDPKVALLIFSSGKLVVTGAKSVQDIERAVAKLAQKLKSIGVKFKRAPQIDVQNMVFSGDIGREFNLDVVALTLPNCEYEPEQFPGVIYRVKEPKSVILLFSSGKIVCSGAKSEADAWEAVRKLLRELDKYGLLEEEEEEL | soluble
3 | AHHHHHHGSVDWELMKKIIESPGVSGYEHLGIRDLVVDILKDVADEVKIDKLGNVIAHFKGSAPKVMVAAHMDKIGLMVNHIDKDGYLRVVPIGGVLPETLIAQKIRFFTEKGERYGVVGVLPPHLRREAKDQGGKIDWDSIIVDVGASSREEAEEMGFRIGTIGEFAPNFTRLSEHRFATPYLDDRICLYAMIEAARQLGEHEADIYIVASVQEEIGLRGARVASFAIDPEVGIAMDVTFAKQPNDKGKIVPELGKGPVMDVGPNINPKLRQFADEVAKKYEIPLQVEPSPRPTGTDANVMQINREGVATAVLSIPIRYMHSQVELADARDVDNTIKLAKALLEELKPMDFTP | soluble
4 | AHHHHHHGSVDYELLKKVVEAPGVSGYEFMGIRDVVIEEIKDYVDEVNVDKLGNVIAHKKGEGPKVMIAAHMDQIGLMVTHIEKNGFLRVAPIGGIDPRTLIAQRFKVWIDKGKFIYGVGGSVPPHIQKPEDRKKAPDWDQIFIDIGAESKEEAEELGVKIGTIVTWDGRLERLGKHRFVSIAFDDRIAVYTLIETARQLQDTKADIYFVATVQEEVGLRGARTSAFGINPDYGFAIDVTIAADVPGTPEHKQVTQLGKGTAIKIMDRSVICHPTIVRWMEELAKKYEIPYQWDILLGGGTDAGAIHLTRAGVPTGAVSIPARYIHSNAEVVDERDVDASVKLMVKVLEHIHELKI | soluble
5 | AHHHHHHGSYDELFKKIKEKAKFVDEKLLSLIPEKEPKILYEAARHYPLAGGKRVRPFVVLTATEAVGGEWEKAIYPAVAIELIHNYSLVHDDIMDMDETRRGRPTVHKVWGINMAILAGDLLFSKAFEAISRAEIPPEKKARVLETVVKASNELCEGQAMDLEFEKRDTVTIEEYMRMISGKTGALFDASAKVGGIVGTDNEEYINALSTWGRNVGIAFQIWDDVLDLIADEEKLGKPVGSDIRKGKKTLIVAHFFENADEKDKQKFLKVFGKYAGDVKGEGIIEEDIKAEVMEAIDLLKKYGSIDYAANIAREMVKKANEALKVLPESEARKDLELLARFIVEREY | soluble
6 | AHHHHHHGSYKILEKKEIAMRNTWYKVYAPHVAKKVQPGQFVIVRAFPNGERIPLTPVMWDREEGWIVLIVFTRGKTTMRMAVELKEGDSLLNVAGPLGTPVPMEKFGKILAIGAYTGIVEVYPIAKAWQEIGNDVTTLHVTFEPMVILKEELEKAVTRHIVEPVPLNPNQDFLANMKNVSQRLKEKVRELLESEDWDLVFMVGPVGDQKQVFEVVKEYGVPMKVDLHPIMVDGTGMCGACRVTVGGEVKFACVDGPEFDAYQVDWDELIHRVGFYAKLEKLALEKYMEELKAKGVIMPRLIKERVPTPERSVGERVRDFGEVNLGYSWELALREAERCLQCPVEYAPCIKGCPVHINIPGFIKALRENRDNPSKAVREALRIIWRDNTLPAITGRVCPQEEQCEGACVVGKVGDPINIGKLERFVADYAREHGIDDELLLEEIKGIKRNGKKVAIIGAGPAGLTCAADLAKMGYEVTIYEALHQPGGVLTYGIPEFRLPKEILRKELKKLSLLGVEIKTDHIVGKTITIQELLQEYDAVFIGTGAGTPKLPNIPGINLNGIYSANEFLTRINLMKAYKFPEYDTPIVVGKKVVVIGAGNTAMDAARSALRLGAEVTIAYRRGREDMTARIEEVKHAEEEGVKFMFFVNPVEFIGDENGNVKAVKFEKMKPLEERDSRGKRKIVGTGEYITVEADTVIIAIGQTPNKVLWRATPELKVDEWGRIVVDENLMTSIPGVFAGGDAIRGEATVILAMGDGRKAAKAIHQYLSKKGN | soluble
7 | AIAEAAVDWYDFWNYYYLGKYQAANDVCTTLLEPNQWPRSVLLAVIRLRLALRDLEGIRALRNLVNDTWTSSVIHELIETLQKNVPPIDDGERLRSVVFGDGSALDAVDEAGRLLAALALQRAGLYLDALETLPLSRCENDAESRACRICLWLHLNRLDRAQLEQQALEHWFERQLADGDQRAVGTLVQLSRATLAVASNDAEDVAIEAALRSCRDLAERYGPSTKLLNLTYLCLVRLGRTEASESTLQQAMNLDAQDPDTMANTAASAAKTSMMMMAFPEAATATQRPIEYLRKYAPWHPWIRAQDDFERKLRGLAT | soluble
8 | AIAKPTNKAQDDDAVFALSTEVNHKLDLHQSSAEALRLAGVYTRQSCVLDLYHGYRSDDEDTEPDEEDGRLQTVREYHENGMLKLMRTFVRRLRRDATDPTAESSYYDRVVEEKHYDPSGICRVDMHFALGQPYLYRKHYYPNNRLKSEKVFFVEDEETMRARKVGHWRTYYENGNIQSEIIYNKDGVRCGFCKRYAIDGAIEWVKDYTREQEERLQAFNAKRGNLDLTVTDAARVLGLEGDWCSHVVNRTFRSKCAPLHPDWRRTAGDKAGETWEEEQRTEAFIRLSRAREVLLKFLETHPRECSCERGGA | soluble
9 | AIALTTNASSKIFSKASTAELVGHTRKVHCLSWNPKGGLLGSGGVDCVARIWDVEKLQQKAELEGHTSSIEQLKWDPTANVFFVSASLDHKVLFWDLRARNSEPVASVETQGENINLAWSQDGVYCAVGDKDDNLSFIDVRKFDFFERFQFAEEVNEFKWSPSGPFFFMTLGKEVLVFRWPTMEQQLRLQVHADRCYCLEFDRSGRYFALGGADSIISLWETEYMLCTWTVDRLEYPIRTISFSHDGQFIAAGSEDSVIDISDILNGRQTYALGVKGATNVVAWHPSRHLLAYATEEEYSRDGVAIHLYGTISKDNI | soluble
10 | AIAPSRQLEDPGAGTPSPVRLHALAGFQQRALCHALTFPSLQRLVYSMCSLCQEENEDMVPDALQQNPGAFRLAPALPARPHRGLSTFPGAEHCLRASPKTTLSGGFFVAVIERVEMPT | soluble
11 | AIASIPFSNTHYRIPQGFGNLLEGLTREILREQPDNIPAFAAAYFESLLEKREKTNFDPAEWGSKVEDRFYNNHAFEEQEPPEKSDPKQEESQISGKEEETSVTILDSSEEDKEKEEVAAVKIQAAFRGHIAREEAKKMKTNSLQNEEKEENK | soluble
12 | AIASKKKGLSFDDKRTRMLEIFTESKTFFTLKELEKVAPKQKGIVLPSVKEVLQSLVDDDVVSSDKCGTQTVYWCLPSQAVQKKRCRIASLTEHLQAKYALRQQLFQRRDELRNSHQDTEERTHFIEQINELESKLKLIQEQLDIYKESDPEVLAEIRNVSHIAWEATNRWTDNIFSIRSWVTSKFGLPSSEFDKNFGLSEDFDYI | soluble
13 | AIAVHRDPAEELWCELWQPGVDITRKMNAIFGLKEIGTERAVTLLCAALLDARERSVLVRHEIAYVLGQIQSAASIKTLTDRLIDTDENSIVRHECGEALGAVRAFAVRPILQKLCGDAVPEVRETCVLALERLRWLEEKSTNEERVRETSAKAFKLFETVDPAPAFVAPDDLEASWSNAELGELLLNENEPLFRRYRALFTLRDRNTDDTAGVIAAALRRDTSSALFRHEVAYVLGQMSRACTLPALESALADTHEHAMVRHEAAEAIGAIGNSSACDILRRFLRDANVIVRESCQVALDIAGISDDCQFMD | soluble
14 | AIAWNKKNEEKEDFGIIVILWKQVTVKEDGKVPLEPFLTAAKEVLRVVDAFGSGFRIVKNDIAGNIKKLYRANQTVHAETLQELIIAENSPDGLATVALLWLKRAFQFIASFLRRLVVTDKSLEQCVTEAYNCTLRPCHSAVIQKVFWGGVKLAPSRERFYRKLHPDLNIAKAKIEEFLIELHDPLCCIVQFFFQRELEDQCWGDEVYQRKDSSEWLKVSCEQDSV | soluble
15 | ALGDTLTITLGGSGGTAKVLRKINQDGYTSEYYLPETSSSFRAKVRHTKESVKPNQVQYERHNVEFTETVYASGSTPEFVRQAYVVIRHKVGDVSATVSDLGEALSFYLNEALYGKLIGWES | soluble
16 | ALMITDECINCDVCEPECPNGAISQGDETYVIEPSLCTECVGHYETSQCVEVCPVDAIIKDPSHEETEDELRAKYERITGEG | soluble
17 | ALPTIHVVTPTYSRPVQKAELTRMANTLLHVPNLHWLVVEDAPRRTPLTARLLRDTGLNYTHLHVETPRNYKLRGDARDPRIPRGTMQRNLALRWLRETFPRNSSQPGVVYFADDDNTYSLELFEEMRSTRRVSVWPVAFVGGLRYEAPRVNGAGKVVRWKTVFDPHRPFAIDMAGFAVNLRLILQRSQAYFKLRGVKGGYQESSLLRELVTLNDLEPKAANCTKILVWHTRTEKPVLVNEGKKGFTDPSVEI | soluble
18 | ANNRAEVDTLSPAQAAELKPMPQSWRGVLPCADCEGIETSLFLEKDGTWVMNERYLGAREEPSSFASYGTWARTADKLVLTDSKGEKSYYRAKGDALEMLDREGNPIESQFNYTLEAAQSSLPMTPMTLRGMYFYMADAATFTDCATGKRFMVANNAELERSYLAARGHSEKPVLLSVEGHFTLEGNPDTGAPTKVLAPDTAGKFYPNQDCSSLGQMASMTGGQQMGHHHHHH | soluble
19 | ANSKLTSDFDNPRWIGRHKHMFNFLDVNHNGKISLDEMVYKASDIVINNLGATPEQAKRHKDAVEAFFGGAGMKYGVETDWPAYIEGWKKLATDELEKYAKNEPTLIRIWGDALFDIVDKDQNGAITLDEWKAYTKAAGIIQSSEDCEETFRVCDIDESGQLDVDEMTRQHLGFWYTMDPACEKLYGGAVP | soluble
20 | APGVSTILDNRNNPIAWVYKQRRFEIPSEAIPQSMKDAIVSIEDRRFYEHKGVDIQGNLRAIVTNIFAGGVAQGASTIDQQYVKNFLLLVKSDNPEEQAAATETSIPRKLREMRMASTIDSTLSKDDILTRYLNLVHLGNGAFGVEAAARTYFGKGAPELSLAQSAMFAGIVQSSSY | not soluble
21 | APIKGVTFGEDTVWEVQGYKNVRITFELDERVDKVLNEKCSVYTVESGTEVTEFACVVAEAVVKTLQPVSDLLTNMGIDLDEWSVATFYLFDDAGEENFSSRMYCSFYPPDE | soluble
22 | APKNGTVQEKKFFSKELNEEMTLLVYLPSNYSPLYKYHVIIAQDGHDYFRLGRIGRQVEELLSKREIDRSIIIGVPYKDVKERRNTYHPEGSKFSAYKRFIAHELVPFADDEYPTYQIGYGRTLIGDSLGATVSLMTALDYPNMFGNIIMQSPYVDKHVLEAVKQSDDIKHLSIYHQIGTKETDVHTTDGNILDFTEPNRELKQLLEKKLSDYDFEPFDGDHKWTYWQPLITPALKKML | not soluble
23 | APSASFERRQGSVNPYIGRSPLVIKSYAEKLEETIAYFEAQGDELNAARTRTVQGIPTFAWISDSATIDTIQPLIADAVAHQEASGEQVLVQLVIYNLPDRDCAAKASDGEFHLDDDGANKYRAYVDRIVAELSTADADKLHFSIVLEPDSLGNMVTNMHVPKCQGAATAYKEGIAYTIASLQKPNIDLYIDAAHGGWLGWNDNLRPSAEIFKETLDLARQITPNATVRGLAINVSNYNPYKTRAREDYTEWNNAYDEWNYVKTLTPHLQAVGFPAQFIVDQGRSGREGIRTEWGQWCNIRNAGFGIRPTTDQAIVDSANVDAIVWVKPGGESDGTSDVNAVRFDENCRSPASHVPAPEAGEWFNEFVVNLVINANPPLEPTYAAAALEHHHHHH | soluble
